This note sets out measurements from patent US20130040894A1, “INHIBITION OR ACTIVATION OF SERINE/THREONINE ULK3 KINASE ACTIVITY” (TALLINN UNIVERSITY OF TECHNOLOGY, priority 2009, published 2013).

One data set has as its target T1, FLAG-tagged GLI3, P10071.
T1 chain: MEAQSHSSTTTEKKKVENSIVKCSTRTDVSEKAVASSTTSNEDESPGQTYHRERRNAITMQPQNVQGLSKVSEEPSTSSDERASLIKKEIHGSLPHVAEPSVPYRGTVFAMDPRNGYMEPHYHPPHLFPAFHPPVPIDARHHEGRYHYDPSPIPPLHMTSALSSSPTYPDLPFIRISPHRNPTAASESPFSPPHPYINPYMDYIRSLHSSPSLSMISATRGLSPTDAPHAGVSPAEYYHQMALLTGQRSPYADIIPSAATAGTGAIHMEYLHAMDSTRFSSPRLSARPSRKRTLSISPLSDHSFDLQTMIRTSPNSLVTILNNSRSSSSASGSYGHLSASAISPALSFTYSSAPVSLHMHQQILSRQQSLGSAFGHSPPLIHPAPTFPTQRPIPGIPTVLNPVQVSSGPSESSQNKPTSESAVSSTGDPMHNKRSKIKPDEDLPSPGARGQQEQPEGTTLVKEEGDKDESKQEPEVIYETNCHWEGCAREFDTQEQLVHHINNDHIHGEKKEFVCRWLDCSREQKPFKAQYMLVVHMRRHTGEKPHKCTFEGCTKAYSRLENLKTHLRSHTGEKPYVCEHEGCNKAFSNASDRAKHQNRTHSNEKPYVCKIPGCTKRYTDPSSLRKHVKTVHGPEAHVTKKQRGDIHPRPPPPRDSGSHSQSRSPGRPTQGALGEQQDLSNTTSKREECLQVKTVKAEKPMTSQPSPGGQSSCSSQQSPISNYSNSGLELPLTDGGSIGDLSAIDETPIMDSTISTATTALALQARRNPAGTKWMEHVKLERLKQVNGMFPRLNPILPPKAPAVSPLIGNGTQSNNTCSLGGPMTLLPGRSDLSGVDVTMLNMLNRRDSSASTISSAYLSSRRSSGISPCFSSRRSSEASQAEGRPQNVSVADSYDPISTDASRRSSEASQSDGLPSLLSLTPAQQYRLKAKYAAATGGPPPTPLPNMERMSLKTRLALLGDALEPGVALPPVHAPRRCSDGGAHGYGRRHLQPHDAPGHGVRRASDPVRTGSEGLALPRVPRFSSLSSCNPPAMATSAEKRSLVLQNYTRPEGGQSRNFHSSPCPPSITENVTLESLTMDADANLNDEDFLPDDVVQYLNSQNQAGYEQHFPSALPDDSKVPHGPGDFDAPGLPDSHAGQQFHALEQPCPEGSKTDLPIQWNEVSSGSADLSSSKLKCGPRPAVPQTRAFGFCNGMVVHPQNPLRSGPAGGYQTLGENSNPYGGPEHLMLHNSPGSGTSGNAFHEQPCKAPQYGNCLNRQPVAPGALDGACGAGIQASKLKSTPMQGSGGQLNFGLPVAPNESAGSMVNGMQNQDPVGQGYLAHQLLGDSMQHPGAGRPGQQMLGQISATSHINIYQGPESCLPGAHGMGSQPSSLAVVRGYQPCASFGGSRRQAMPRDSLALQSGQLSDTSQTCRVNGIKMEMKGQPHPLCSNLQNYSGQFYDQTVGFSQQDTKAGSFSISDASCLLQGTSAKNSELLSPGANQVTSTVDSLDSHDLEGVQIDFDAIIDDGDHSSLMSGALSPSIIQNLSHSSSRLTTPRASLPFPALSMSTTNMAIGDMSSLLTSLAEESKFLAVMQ

Data set [1] addresses T2, His-tagged GLI1 fragment, amino acids 1-433.
T2 chain: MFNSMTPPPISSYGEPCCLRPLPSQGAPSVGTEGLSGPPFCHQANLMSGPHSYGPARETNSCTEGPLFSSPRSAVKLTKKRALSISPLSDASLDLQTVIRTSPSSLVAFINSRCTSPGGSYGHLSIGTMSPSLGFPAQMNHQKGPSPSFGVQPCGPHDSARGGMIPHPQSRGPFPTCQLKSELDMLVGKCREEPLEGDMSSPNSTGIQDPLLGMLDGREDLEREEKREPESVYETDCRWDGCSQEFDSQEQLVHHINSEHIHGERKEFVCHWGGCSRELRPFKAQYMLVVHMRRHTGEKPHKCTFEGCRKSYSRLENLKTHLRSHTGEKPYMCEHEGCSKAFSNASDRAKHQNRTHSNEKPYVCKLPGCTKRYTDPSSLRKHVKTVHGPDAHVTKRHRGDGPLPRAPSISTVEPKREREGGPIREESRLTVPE

Another data set has as its system GLI2. Briefly: In vitro kinase assay, phosphorylation of GLI2. To be noted: FLAG-tagged GLI2 immunoprecipitated from HEK293 cells. Format: biochemical. The method, then: (§1) HEK293 cells were transfected with 13.5 μg of FLAG-tagged constructs expressed GLI1, GLI2, GLI3, ULK3, ULK3(K44R), ULK3(K139R) or FLAG-CMV-4 empty vector on 10 cm plates. The cells were lysed with 0.5 ml of Lysis Buffer (50 mM Tris HCl, pH 7.4, 150 mM NaCl, 1 mM EDTA, 1% Triton X-100) containing protease inhibitor cocktail (PIC) (Roche Applied Science). The lysates were centrifuged for 15 min at 4° C. and 15000 g, and the supernatants were used for immunoprecipitation (IP). IP was performed using anti-FLAG-M2 affinity gel (Sigma-Aldrich) in batch format according to the manufacture's instructions. Immune complexes were washed three times with 500 μl of Kinase Buffer (KB) (50 mM HEPES, pH 7.4, 20 mM MgCl2, 25 μM ATP) and resuspended in 12.5 μl of KB. One fifth of the immuno-complexes was subjected to WB and the rest was used for the kinase assay.
(§2) Kinase reactions were carried out in KB in a total volume of 20 μl of in the presence of 1 μCi of [γ-^32P]ATP per reaction. We used 1 μl of the immunoprecipitated ULK3, ULK3(K44R) or ULK3(K139R) mixed with 5 μl of the GLI-M2 immunocomplexes or 5 μl of bacterially expressed and purified His-GLI1 fragments. Kinase reactions were held at 30° C. for 30 min and terminated by adding of 5 μl of 4× Laemmli Sample Buffer. Proteins were resolved by SDS-PAGE. […]

In the next data set the test system is GLI3. As to the kind of experiment: In vitro kinase assay, phosphorylation of GLI3. The class given is biochemical. To be noted: FLAG-tagged GLI3 immunoprecipitated from HEK293 cells. The method, then:
as §1, §2

B1: FLAG-tagged wild-type ULK3 (human serine/threonine kinase ULK3) (protein)
chain: MAGPGWGPPRLDGFILTERLGSGTYATVYKAYAKKDTREVVAIKCVAKKSLNKASVENLLTEIEILKGIRHPHIVQLKDFQWDSDNIYLIMEFCAGGDLSRFIHTRRILPEKVARVFMQQLASALQFLHERNISHLDLKPQNILLSSLEKPHLKLADFGFAQHMSPWDEKHVLRGSPLYMAPEMVCQRQYDARVDLWSMGVILYEALFGQPPFASRSFSELEEKIRSNRVIELPLRPLLSRDCRDLLQRLLERDPSRRISFQDFFAHPWVDLEHMPSGESLGRATALVVQAVKKDQEGDSAAALSLYCKALDFFVPALHYEVDAQRKEAIKAKVGQYVSRAEELKAIVSSSNQALLRQGTSARDLLREMARDKPRLLAALEVASAAMAKEEAAGGEQDALDLYQHSLGELLLLLAAEPPGRRRELLHTEVQNLMARAEYLKEQVKMRESRWEADTLDKEGLSESVRSSCTLQ
Consider B1, for which the “in vitro kinase assay, phosphorylation signal (32P autoradiography)” value with FLAG-tagged GLI3, P10071 is “GLI1 and GLI3 were also phosphorylated by ULK3, but with significantly lower intensity as compared to GLI2”. For the same molecule, the “in vitro kinase assay, phosphorylation of a His-tagged GLI1 fragment” value in data set [1] was “Two of them-GLI1(1-433) and GLI1(726-1106)-were phosphorylated by ULK3”.

B2: ULK3: human serine/threonine kinase, 472 amino acids (SEQ ID NO: 1), overexpressed from cloned cDNA or immunopurified FLAG-tagged (protein, listed as Homo sapiens)
chain: B1 chain
modifications: PEPTIDE (1)..(472) ULK3
As to B2, the “phosphorylation of GLI2” value in the data set on GLI2 is “strongest phosphorylation signal”. For the same molecule, the “phosphorylation of GLI3” value in the data set on GLI3 was “significantly lower intensity as compared to GLI2”.
